Assay results from US20220195052A1.

Target: human αvβ1 integrin on cells (human) (UniProt P06756)
Assay: inhibition of adhesion of BCECF-labelled αvβ1-transfected cells to plate-coated LAP

Chain of human αvβ1 integrin on cells (human) (P06756 31-1048 limits assumed, chain 1 of 2): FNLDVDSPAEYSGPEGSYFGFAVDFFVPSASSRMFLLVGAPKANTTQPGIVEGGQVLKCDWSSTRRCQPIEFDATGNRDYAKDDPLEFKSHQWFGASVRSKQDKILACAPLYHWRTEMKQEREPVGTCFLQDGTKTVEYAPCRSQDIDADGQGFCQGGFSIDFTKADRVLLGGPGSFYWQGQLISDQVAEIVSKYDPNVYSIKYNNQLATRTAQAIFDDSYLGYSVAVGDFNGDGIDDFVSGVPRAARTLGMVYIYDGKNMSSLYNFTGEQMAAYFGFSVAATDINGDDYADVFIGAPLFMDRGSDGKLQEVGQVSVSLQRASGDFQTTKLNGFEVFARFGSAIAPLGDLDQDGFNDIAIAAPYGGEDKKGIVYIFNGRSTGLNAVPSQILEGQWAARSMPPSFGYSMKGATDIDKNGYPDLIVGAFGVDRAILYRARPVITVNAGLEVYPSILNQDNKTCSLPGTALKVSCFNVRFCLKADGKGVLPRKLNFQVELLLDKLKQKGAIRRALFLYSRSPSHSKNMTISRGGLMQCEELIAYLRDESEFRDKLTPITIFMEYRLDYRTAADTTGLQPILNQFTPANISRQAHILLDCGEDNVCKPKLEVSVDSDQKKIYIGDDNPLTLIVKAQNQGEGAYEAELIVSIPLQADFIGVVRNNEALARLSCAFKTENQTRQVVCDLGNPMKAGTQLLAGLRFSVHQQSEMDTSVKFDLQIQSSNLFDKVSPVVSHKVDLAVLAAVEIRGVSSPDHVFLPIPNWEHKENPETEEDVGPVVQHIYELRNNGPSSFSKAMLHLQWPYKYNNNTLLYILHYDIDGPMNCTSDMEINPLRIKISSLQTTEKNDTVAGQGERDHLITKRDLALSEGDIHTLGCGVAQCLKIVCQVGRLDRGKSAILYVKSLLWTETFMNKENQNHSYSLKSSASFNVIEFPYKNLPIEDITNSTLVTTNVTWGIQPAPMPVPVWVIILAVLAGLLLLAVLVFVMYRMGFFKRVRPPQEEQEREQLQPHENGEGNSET
Chain of human αvβ1 integrin on cells (human) (chain, as listed by the source limits assumed, chain 2 of 2): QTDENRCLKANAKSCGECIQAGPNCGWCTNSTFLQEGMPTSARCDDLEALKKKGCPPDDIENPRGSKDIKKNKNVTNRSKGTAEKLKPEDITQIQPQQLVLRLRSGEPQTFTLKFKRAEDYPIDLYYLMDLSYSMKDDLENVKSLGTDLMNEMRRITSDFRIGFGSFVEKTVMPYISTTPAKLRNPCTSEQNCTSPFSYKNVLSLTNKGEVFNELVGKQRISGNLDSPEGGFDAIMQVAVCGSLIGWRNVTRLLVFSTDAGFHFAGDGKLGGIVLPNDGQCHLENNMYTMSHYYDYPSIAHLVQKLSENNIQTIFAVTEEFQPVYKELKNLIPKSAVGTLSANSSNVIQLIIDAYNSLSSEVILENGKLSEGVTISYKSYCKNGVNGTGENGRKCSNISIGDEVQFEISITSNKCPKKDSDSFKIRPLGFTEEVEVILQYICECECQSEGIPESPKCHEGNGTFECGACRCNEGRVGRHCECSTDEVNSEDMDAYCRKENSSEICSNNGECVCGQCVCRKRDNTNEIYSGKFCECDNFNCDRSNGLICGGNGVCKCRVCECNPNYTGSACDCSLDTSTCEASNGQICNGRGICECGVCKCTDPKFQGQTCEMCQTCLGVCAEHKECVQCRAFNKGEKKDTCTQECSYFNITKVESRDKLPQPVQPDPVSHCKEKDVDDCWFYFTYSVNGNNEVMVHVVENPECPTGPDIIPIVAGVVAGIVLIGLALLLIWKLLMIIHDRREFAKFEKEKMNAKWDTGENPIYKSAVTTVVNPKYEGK

- IC50: 1 nM
Substance: L230 (pan-αv commercial antibody)
